This data set has as its system RSG1.2 peptide (synthetic). As to the kind of experiment: FP. The following applies: about fifty fold greater RNA concentration than RRE1 required for similar polarization; 150 mM KCl, 5 mM MgCl2.

From patent US20030148343 come the findings set out here.

For “GGCUGGUAUGGGCGCAGCGUCAAUGACGCUGCGCCCAGGCCAGCC [RRE2 hairpin]”, the fold-higher RNA concentration than RRE1 for similar polarization came out at 50 fold.
